In paper PMC10763354 (2024):

Target: Desulfovibrio vulgaris flagellin (Desulfovibrio vulgaris)
Experiment: MST

B1: leucine-rich repeat containing 19 (LRRC19) protein (receptor)
chain: SKREVQCNFTEKNYTLIPADIKKDVTILDLSYNQITLNGTDTRVLQTYFLLTELYLIENKVTILHNNGFGNLSSLEILNICRNSIYVIQQGAFLGLNKLKQLYLCQNKIEQLNADVFVPLRSLKLLNLQGNLISYLDVPPLFHLELITLYGNLWNCSCSLFNLQNWLNTSNVTLENENITMCSYPNSLQSYNIKTVPHKAECHSKFPSSVTEDLYIHFQPISNSIFNSSSNNLTRNSEHEPLGKSW
modifications: NT647 fluorescence dye (in the MST experiments only)
Work on B1 yielded a Kd of 1050 nM.
